From publication PMC6284238

Substrate: NC(=O)c1ccc[n+]([C@@H]2O[C@H](COP(=O)([O-])OP(=O)(O)OC[C@H]3O[C@@H](n4cnc5c(N)ncnc54)[C@H](O)[C@@H]3O)[C@@H](O)[C@H]2O)c1
Assay: Michaelis-Menten kinetics of NAD+ cleavage by purified SARM1-TIR, HPLC
Format: biochemical, Homo sapiens
Conditions: E642 is a putative key catalytic residue within the active site

B1: SARM1-TIR (Homo sapiens) (protein)
chain: DTPDVFISYRRNSGSQLASLLKVHLQLHGFSVFIDVEKLEAGKFEDKLIQSVMGARNFVLVLSPGALDKCMQDHDCKDWVHKEIVTALSCGKNIVPIIDGFEWPEPQVLPEDMQAVLTFNGIKWSHEYQEATIEKIIRFLQGRS
Km: 24 µM
